Source: the domain aggregation screens of Martell et al. (2025)

Experiment: soluble fraction after stress (log2 fold change); higher = more stays soluble; pooled small domains, quantitative proteomics
Details: stress: 75 degC
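Note: 20 min heating vs room temperature control held 20 min.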

Q: With “HMDSDFIKIEVLFNERNRLDLKAMMEASGFTDRGQFLSIMADLTGDENWDRNLDRGDIFYLPRSFTI” as the sequence, how does the “soluble fraction (log2)” value read?
A: -1.28

Q: Which “soluble fraction (log2)” value does the source give for “HMDSDIGQQLKILLTVGTFMPSTELKAIAQQFGMKKPTDLKEWVELESDTQRIKGNPTKGYWINEINDL” here?
A: -0.682

Q: With “HMDSEEVYQMTKHKMDAAQISVAKRIHINLVLVKLLELHHLGYDLRHYHAQHHAFIKRLNLPEYFRFD” as the sequence, how does the “soluble fraction (log2)” value read?
A: -1.67

Q: Which “soluble fraction (log2)” value does the source give for “HMDSEKVLTNLKEELVLQLSNIEPYGYVPSQYWYSKVQRVQSVQELGKYVDGDLEAFVMKYAEDWESQK” here?
A: -0.115

Q: Which “soluble fraction (log2)” value does the source give for “HMDSGFMRTTQSYTVARLAEIFRLSGEDYLAVLREYDGWYQDLTSTKDLIRKGSDVPVPEGV” here?
A: -1.67

Q: With “HMDSGLEQAKTAALENAELETSQVTFIKAELDYDDGKKVYEIEFVTSAMKYEYQVKADDFSILEMSKETIE” as the sequence, how does the “soluble fraction (log2)” value read?
A: -0.755

Q: Which “soluble fraction (log2)” value does the source give for “HMDSHSAESVRQRIKDMIAAEASKSILSDDTIVENLKSEGIEIARRTVAKYRESLNIPSSIQRRRIARSEA” here?
A: -0.19

Q: With “HMDSILMPGVVNKELREALAILKNEGIGWADPEYASSTVTRNYVISTDPVEGIELAPGQKVRLVVSLGPKP” as the sequence, how does the “soluble fraction (log2)” value read?
A: -0.326

Q: For “HMDSIQMKNNSILYYGNTAGYLDAKRNTAVVDPMFRTDEMESYLSEQKGLSVEWASGTYDRLT”, which “soluble fraction (log2)” value is on record?
A: 0.0501

Q: Which “soluble fraction (log2)” value does the source give for “HMDSLEIEEPITVKSLSAASGLKISDIIRKLMQEGIMATANQVIDREQAEAVLIDYNVDLVVKR” here?
A: -0.281

Q: With “HMDSLNWVEKIINTLPEQQRLIIQMRDIEQYEFAEIAKILEMNETAIRVALSRARKTIREFMIKTH” as the sequence, how does the “soluble fraction (log2)” value read?
A: -2.07

Q: Which “soluble fraction (log2)” value does the source give for “HMDSLSLTELRIDSASPWIGNRISDFSPYAGELVIMIIRGEETIVPNGDTIILDKDLLVIYSS” here?
A: -2.11

Q: With “HMDSNFNYELVGFRLDDMGLNSSVIVKRNNQEFVIQKGDLLENKYLLNSVTKKNINFSYLGKNYQI” as the sequence, how does the “soluble fraction (log2)” value read?
A: -1.07

Q: With “HMDSNPLSEREQEVLQLVAKGASNQTIAEQLFLSNGTIRNYMTAIFNKLNANNRTDAVRIARENGW” as the sequence, how does the “soluble fraction (log2)” value read?
A: -0.207

Q: Which “soluble fraction (log2)” value does the source give for “HMDSPVEEWANRGLAYDPSLVTETMAKLYAKQGQIGLARKAFKRLALIYPEKSVYFAFQLKKLSNN” here?
A: -2.01

Q: For “HMDSPVLTAEIKALIDKELEQNAVKLATGLKKQRKRATDIHDALIRQGHEVSYRTVVRYIRNKTAQTS”, which “soluble fraction (log2)” value is on record?
A: -0.751

Q: Which “soluble fraction (log2)” value does the source give for “HMDSTSEILKVIQNIVKKEDPYHPLSDDKISNLLNDLDYQISRRTVAKYRDILTIPSSSKRRKL” here?
A: -0.256

Q: For “HMDSVEMFSPILGMNANMDLDTLTQTRDKLLEKYKDDEQLIGLVNKTYDYFNEILLKQFLIEELEKNE”, which “soluble fraction (log2)” value is on record?
A: 0.0898

Q: Which “soluble fraction (log2)” value does the source give for “HMDSVFGVVTSSDGVKLRKEASTISKVLTVLPYGTEVDVDRIGSEWIRIVTDGGQKGYVSADYLAVREGER” here?
A: 0.682

Q: Which “soluble fraction (log2)” value does the source give for “HMDSVPEEQLRQLALDKAKEVKRWGQPVELAKMNAHDRRIIHINLQDDPEIETRSEGEGALKSVIISLKK” here?
A: 0.0979

Q: With “HMDSYADVLSDYRGKYKTNTISGLKGLRDKIREDMLAAADSLDFEKAALLRDEMNDLNKKIELKEKT” as the sequence, how does the “soluble fraction (log2)” value read?
A: ≥ 1.04

Q: Which “soluble fraction (log2)” value does the source give for “HMDTERLYAYAWQTHLKQFGLNISEEEIRQFVGVDDRIVHSFYAKTVPLDDFENTMFSLGEIIQQSL” here?
A: -2.58

Q: With “HMDTFNVIARQEIDGILYEYKIMTVEDYKNQSPENLAVIYENIKAVMEQYDLSEDDADAILVDLLG” as the sequence, how does the “soluble fraction (log2)” value read?
A: -1.14

Q: Which “soluble fraction (log2)” value does the source give for “HMDTIRINSGSTVKEVAEYLGIPVPEVIKKLMSMGELATLTKTLSDDHIEVLAEEFEKKIKIVHVGEEAD” here?
A: -0.458

Q: For “HMDTITDSYTLEKGKLRAKVMEYELPESKKKEYSATFEYRGVYYHMIGIIEKADFEEILKNLHFP”, which “soluble fraction (log2)” value is on record?
A: -0.168

Q: With “HMDTIVVAARSIQARQTLTESDLRVEEQEIGAASDKYYTDIAEAVGLVSSRRLSPGQPILRTM” as the sequence, how does the “soluble fraction (log2)” value read?
A: -0.352

Q: Which “soluble fraction (log2)” value does the source give for “HMDTLKDFISGVSIVFENKYSVGDNVTIGDFRGDVIELGMKTTKIRAYTGEVLIIPNHLVEKVINH” here?
A: -1.56

Q: Which “soluble fraction (log2)” value does the source give for “HMDTLRARQEAAYRFLSAIAGDWRNYEEANRALFAGDAARFQDLTESWPADVRDHARHLASAAFSS” here?
A: -0.8

Q: Which “soluble fraction (log2)” value does the source give for “HMDTNAIIGLRIKNLRTEKKYTLKYLSENTGLSIGFLSQLERGMTSIAIDSLDKISKVLDVELSSFFT” here?
A: -1.69

Q: With “HMDTNELIDRYVNEVGQHLPRKTRADIEMELRSLLLDTLEEQSGGEPTPKMAAEVLREFGHPEEIAAQYH” as the sequence, how does the “soluble fraction (log2)” value read?
A: -0.386

Q: With “HMDTRKKLEQIFKLFDKTGTGMVNIDEFKSVLKLFMEEIDEKFGNYFIAYFDENGDGKIEFEEFADVVL” as the sequence, how does the “soluble fraction (log2)” value read?
A: -0.444

Q: For “HMDTSAHEVLSAIRSIIEDEDKRHPLSDEAITSRLSQQGYDIARRTVAKYRERLGLPVARLRRE”, which “soluble fraction (log2)” value is on record?
A: -0.26

Q: For “HMDVALEALDESDGAVRLQFSGALQTYLNDSTTAASLEAISKTFRAFYEAAGRPVDTLEVYAAGEPVT”, which “soluble fraction (log2)” value is on record?
A: 0.105

Q: For “HMDVDKQLDQLLAAMIPDKSLRQTIKTKAFNELVDNELADKDISSWTKQTMDVFMTRAEDMFGAM”, which “soluble fraction (log2)” value is on record?
A: -0.274

Q: For “HMDVEMLIDKYQLNDSEAEVLRFMKKNRQSLKTIGIRDVAKATYVSTATIINMAKKIGYSGYSELVFALGN”, which “soluble fraction (log2)” value is on record?
A: -1.69

Q: For “HMDVNAQAGYDKLQSNQLDGARHDYEQALKTDPNNVDTLLALAAIAQRQGRSADADGYRQRAIDAD”, which “soluble fraction (log2)” value is on record?
A: -0.378

Q: Which “soluble fraction (log2)” value does the source give for “HMDVNHVIIDHKGNSIQAIIDSIDLDNVYYQSKIKKESEVIDIDKVYFIFNDFDRVYHYDWSYYENL” here?
A: -0.166

Q: Which “soluble fraction (log2)” value does the source give for “HMDVNLSIRSGETIGIIGSTGSAKSTLVQLIPRLYDTTEGEVLVGGVNVKNYDLEALRNSVAMVLQKN” here?
A: -0.112

Q: With “HMDVPNLVGEEIKDVRRTLRHFQLEVIGEGSKIVSQVPKHGQRLPENTTIRVYLN” as the sequence, how does the “soluble fraction (log2)” value read?
A: -0.0339

Q: For “HMDVPNLVGKTLEEAENELKKLNIRYNVTERADEAPKDTVIEQSPKPYEAMEPGTVVNLVISSGPA”, which “soluble fraction (log2)” value is on record?
A: ≥ 1.04

Q: With “HMDVQPHIYLRKLDQFWPADLHSLILYTLDGRRLWSADSGNIPALPHRASSLVILEATWDNGQRTRRKQFL” as the sequence, how does the “soluble fraction (log2)” value read?
A: -1.75

Q: With “HMDVRKSISDLKALGLSDAAVTVYGTIGNKPVHIDKIVSELGIPVFKVLTALTQLEMKGLVTAMQGRMYVL” as the sequence, how does the “soluble fraction (log2)” value read?
A: -2.13

Q: With “HMDVSASEVGLTGRQTDVLSLMVKGRSNRDIAELLGLSEGTVKIHITAIFKALGVASRTQALVAAARLGLK” as the sequence, how does the “soluble fraction (log2)” value read?
A: -0.82

Q: With “HMDVSLVEQTQRDILEYISKNNSNAQLPKEQEFVGLLGVSRVVVREALSRLRALGIIETKRKKGTVVVVPE” as the sequence, how does the “soluble fraction (log2)” value read?
A: -1.09

Q: For “HMDWVAYGAELRRRRLLAGWSVAELSRRTNLSTSIIYQVEQARTRLRPSQLTLAKLAAALGMP”, which “soluble fraction (log2)” value is on record?
A: -3.1

Q: With “HMDYAQAQRQAESAIALRPDVERLRLLLIYALQKQGKLREAEQAAADAIKSGLDTPALRQARANLRP” as the sequence, how does the “soluble fraction (log2)” value read?
A: -0.732

Q: Which “soluble fraction (log2)” value does the source give for “HMDYGSISFINWSIEVLSVIKTRLDRGDKIIDEVSGEKYTASSFEKFVRKNFSSYIFSQVYAEDHKK” here?
A: -2.73

Q: With “HMDYHTIQTGDKGDEVLRLQQALAEYGYYEGDLDGRFGQQTRRAVERFQYSHGLTADGIAGRNTLSVLYD” as the sequence, how does the “soluble fraction (log2)” value read?
A: -0.181

Q: Which “soluble fraction (log2)” value does the source give for “HMDYIITHYPDNKRFETQVDGVVAFVQYRLSGDKLDIIHTIVPPAIGGRGIAAALVKYAYDYAIENGMK” here?
A: -2.13

Q: With “HMDYKSKLQELVQTEKRTVEYKLVDESGPAHNKSFTFEVVISGIKYGSGTGASKKIAEQNAAKEALEKLA” as the sequence, how does the “soluble fraction (log2)” value read?
A: -0.277

Q: Which “soluble fraction (log2)” value does the source give for “HMDYKSTLQELVQTVKKSVTYEVIDEEGPSHNKTFTSIVKIDGIVMGKGTAGSKKASEQEAARDALSKR” here?
A: 0.42

Q: Which “soluble fraction (log2)” value does the source give for “HMDYLYHNGKEIDQGSIMYKMEDYSDGIFELQSAKYADGTELDEKELEELESTQELIDWVMIDFVS” here?
A: 0.675

Q: For “HMDYNSYGLTERELELVDYVLKGYSRKEMAEASGLKVNTIGSYMKKIYRKLNIHNRTELKERFI”, which “soluble fraction (log2)” value is on record?
A: -0.119

Q: Which “soluble fraction (log2)” value does the source give for “HMDYNYLVFVTNTGPRSIAVEDLEMTVSDGKLVVSSGADGETFDLSTLTKMYFSDAAVVSINDV” here?
A: -1.1

Q: With “HMDYQYILVDVKDRIATVTINRPEYSNAFARESYYEIADAMNTLGARDDVGVIVITGAGKHFSAGGDIKRF” as the sequence, how does the “soluble fraction (log2)” value read?
A: -0.777
